What all share (assay): filter binding
The target of data set [1] is T1, CYT-18 NTDs (Neurospora crassa) (UniProt P12063).
T1 sequence: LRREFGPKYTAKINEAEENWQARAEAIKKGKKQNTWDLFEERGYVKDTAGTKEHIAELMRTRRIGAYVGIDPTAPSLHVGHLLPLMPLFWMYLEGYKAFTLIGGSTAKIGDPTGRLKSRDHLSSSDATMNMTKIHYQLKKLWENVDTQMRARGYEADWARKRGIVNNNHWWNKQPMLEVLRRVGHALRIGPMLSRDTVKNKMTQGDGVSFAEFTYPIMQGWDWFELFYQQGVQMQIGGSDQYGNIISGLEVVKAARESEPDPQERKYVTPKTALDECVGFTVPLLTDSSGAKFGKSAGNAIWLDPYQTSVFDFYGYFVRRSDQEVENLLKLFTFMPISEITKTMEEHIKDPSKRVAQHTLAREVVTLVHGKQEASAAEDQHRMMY
Conditions: 100 mM KCl, 5 mM MgCl2, 20 mM Tris-HCl pH 7.5, 5 mM DTT, 0.1 mg/ml BSA, 10% glycerol, 5 pM RNA, 30 min, 25C or 37C, nitrocellulose/nylon filter.

For data set [2], the target named is T2, Sc CTD (Saccharomyces cerevisiae) (UniProt P48527).
T2 sequence: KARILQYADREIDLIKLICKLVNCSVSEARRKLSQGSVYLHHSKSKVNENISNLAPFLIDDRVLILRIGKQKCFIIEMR
The conditions noted are these: 25C; n=1.8; 100 mM KCl, 5 mM MgCl2, 20 mM Tris-HCl pH 7.5, 5 mM DTT, 0.1 mg/ml BSA, 10% glycerol, 5 pM RNA, 30 min, 25C or 37C; nitrocellulose/nylon filter.

Data set [3] concerns Sc mtTyrRS (Saccharomyces cerevisiae). The conditions noted are these: 100 mM KCl, 5 mM MgCl2, 20 mM Tris-HCl pH 7.5, 5 mM DTT, 0.1 mg/ml BSA, 10% glycerol, 5 pM RNA, 30 min, 25C or 37C; nitrocellulose/nylon filter.

For orientation: Kd means the concentration at which binding is half-saturated.

For “Ll.LtrB group II intron RNA (dORF, branch-point nucleotide deleted)”, the Kd in data set [1] and in data set [3] was 440 nM in each case. In addition, the K half in data set [1] (25C, n=1.6) amounted to 240 nM; in data set [2] it was 110 nM.
With Nc ND1m group I intron RNA, the dissociation constant Kd in data set [1] (25C, low end of stated range, strongest group I intron) came out at 200 nM; in data set [1] (37C, low end of stated range, strongest group I intron), 440 nM.
For Nc mt LSU group I intron RNA, the Kd in data set [1] (25C, high end of stated range, weakest group I intron) was 590 nM; in data set [1] (37C, high end of stated range, weakest group I intron), 740 nM; in data set [3], 430 nM.

(Values after publication PMC4275181.)
